Measurements taken from US20030219853.

Key:
β-casein = target: T1, β-casein (UniProt P02666)
T1 sequence: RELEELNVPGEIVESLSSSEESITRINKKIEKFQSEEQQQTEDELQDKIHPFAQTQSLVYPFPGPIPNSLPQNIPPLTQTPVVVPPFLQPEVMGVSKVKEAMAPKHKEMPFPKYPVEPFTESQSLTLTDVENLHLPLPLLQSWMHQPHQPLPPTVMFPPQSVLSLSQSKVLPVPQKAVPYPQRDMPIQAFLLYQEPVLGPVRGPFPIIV

[1] = target: recombinant serum albumin (UniProt P02768)
ovalbumin = ovalbumin (UniProt P01012)
[2] = target: bovine serum albumin (BSA) (UniProt P02769)
Chain of bovine serum albumin (BSA) (P02769 25-607): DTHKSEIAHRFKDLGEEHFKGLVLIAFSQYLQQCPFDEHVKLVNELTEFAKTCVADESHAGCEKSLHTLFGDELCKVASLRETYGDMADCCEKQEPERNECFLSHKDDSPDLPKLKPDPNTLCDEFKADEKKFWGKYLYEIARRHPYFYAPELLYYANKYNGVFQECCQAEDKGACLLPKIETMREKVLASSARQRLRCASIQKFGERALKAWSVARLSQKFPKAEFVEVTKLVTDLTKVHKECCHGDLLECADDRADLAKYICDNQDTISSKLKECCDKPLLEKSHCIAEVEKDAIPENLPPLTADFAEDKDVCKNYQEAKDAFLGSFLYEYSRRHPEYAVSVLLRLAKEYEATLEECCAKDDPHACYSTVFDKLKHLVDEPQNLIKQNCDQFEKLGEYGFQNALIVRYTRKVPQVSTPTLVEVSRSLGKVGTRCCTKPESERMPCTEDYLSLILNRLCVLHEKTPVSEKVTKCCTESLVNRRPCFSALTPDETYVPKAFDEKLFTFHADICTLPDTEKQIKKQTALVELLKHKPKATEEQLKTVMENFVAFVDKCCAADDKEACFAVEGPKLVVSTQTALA

Chain of ovalbumin (P01012 2-386): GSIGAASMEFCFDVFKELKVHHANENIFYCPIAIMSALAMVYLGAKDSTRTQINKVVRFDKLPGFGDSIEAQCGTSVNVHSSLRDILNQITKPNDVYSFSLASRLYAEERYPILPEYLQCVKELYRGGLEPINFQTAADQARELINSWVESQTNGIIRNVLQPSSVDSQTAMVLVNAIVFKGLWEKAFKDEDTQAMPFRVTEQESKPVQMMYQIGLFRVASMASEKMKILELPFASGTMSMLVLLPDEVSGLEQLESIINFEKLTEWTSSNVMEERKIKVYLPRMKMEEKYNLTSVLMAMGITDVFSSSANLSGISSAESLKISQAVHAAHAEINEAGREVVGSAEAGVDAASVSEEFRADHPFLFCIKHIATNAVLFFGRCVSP

B1: recombinant 6x-His-TGase fusion protein of Streptomyces mobaraensis ATCC 29032 (enzyme, UniProt P81453 77-407, looked up)
Protein-glutamine gamma-glutamyltransferase: DSDDRVTPPAEPLDRMPDPYRPSYGRAETVVNNYIRKWQQVYSHRDGRKQQMTEEQREWLSYGCVGVTWVNSGQYPTNRLAFASFDEDRFKNELKNGRPRSGETRAEFEGRVAKESFDEEKGFQRAREVASVMNRALENAHDESAYLDNLKKELANGNDALRNEDARSPFYSALRNTPSFKERNGGNHDPSRMKAVIYSKHFWSGQDRSSSADKRKYGDPDAFRPAPGTGLVDMSRDRNIPRSPTSPGEGFVNFDYGWFGAQTEADADKTVWTHGNHYHAPNGSLGAMHVYESKFRNWSEGYSDFDRGAYVITFIPKSWNTAPDKVKQGWP
modifications: N-terminal 6xHis tag
cross-linking on SDS-PAGE, native and modified (denatured, dialyzed) protein (histone H3 protein): only the reactions containing the modified protein species of BSA, histine H3 protein, glucose oxidase, and ovalbumin were cross-linked by the purified recombinant SM TGase; complete and partial cross-linking was both observed for native histine H3 protein
cross-linking of a mixture of β-casein and glucose oxidase on SDS-PAGE (β-casein): both protein species can be cross-linked by the purified recombinant SM TGase, as indicated by the disappearance of the two monomer bands
cross-linking of β-casein on SDS-PAGE (β-casein): the cross-linked (CL) β-casein migrated as a smear on the SDS-PAGE gel indicating a mixture of high molecular weight polymers of different length
cross-linking of β-casein on SDS-PAGE, 0 mM DTT (β-casein): in the absence of DTT (lane 1 and 2), the recombinant SM TGase had no cross-linking activity on β-casein and β-casein runs as a monomer
cross-linking of β-casein on SDS-PAGE, about 2 mM DTT (β-casein): the recombinant SM TGase was activated and β-casein run as a mixture of cross-linked polymer and monomer
cross-linking of β-casein on SDS-PAGE, about 10 mM DTT (β-casein): the catalytic cross-linking activity of SM TGase resulted in cross-linking of all detectable β-casein substrates in the reaction
cross-linking of BSA5 peptide on SDS-PAGE (BSA5 peptide): increased amount of recombinant SM TGase corresponding to an increase in cross-linked (CL) BSA5 peptide, which run as a large molecular weight polymer on the top of the separating gel
cross-linking of recombinant serum albumin on SDS-PAGE [1]: the cross-linking reaction containing recombinant serum albumin revealed a mixture of very high molecular weight polymers of different length
cross-linking on SDS-PAGE, native and modified (denatured, dialyzed) protein (ovalbumin): only the reactions containing the modified protein species of BSA, histine H3 protein, glucose oxidase, and ovalbumin were cross-linked by the purified recombinant SM TGase
cross-linking on SDS-PAGE, native and modified (denatured, dialyzed) protein [2]: only the reactions containing the modified protein species of BSA, histine H3 protein, glucose oxidase, and ovalbumin were cross-linked by the purified recombinant SM TGase
